Experimental findings from article PMC3172200 (PLoS Biology, 2011) are described below.

The target of this experiment is T1, recombinant wild type SEB with N-terminal His6-tag (S. aureus COL, UniProt P01552 28-266).
T1 sequence: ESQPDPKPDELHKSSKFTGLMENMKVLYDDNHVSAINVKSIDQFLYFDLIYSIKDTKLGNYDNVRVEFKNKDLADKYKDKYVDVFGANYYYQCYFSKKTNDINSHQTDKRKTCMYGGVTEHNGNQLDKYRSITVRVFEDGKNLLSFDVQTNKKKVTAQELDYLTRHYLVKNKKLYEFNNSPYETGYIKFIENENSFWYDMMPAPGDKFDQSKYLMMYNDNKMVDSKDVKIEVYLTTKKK
Nature of the experiment: western blot of SEB bound to transfected cells. The note with it: both partners purified.

Where no end group is shown, it is not given here. [ ]: non-standard residue; d: D form.

B1: p1TA (HVKGKHLCP; CD28 116-124), form for biological assays (peptide)
peptide: [dA]HVKGKHLCP[dA]
notes: source: synthetic peptide
Regarding B1, the binding result is “binds”.

B2: p2TA (SPMLVAYD; CD28 8-15), form for biological assays (peptide)
peptide: ASPMLVAYDA
modifications: D-Ala at both termini
notes: source: synthetic peptide
Take B2: the binding result is “binds”.
